Data from paper PMC8840930, “PSTPIP1-LYP phosphatase interaction: structural basis and implications for autoinflammatory disorders” (Cellular and Molecular Life Sciences: CMLS, 2022).
Values joined by “and” are separate entries in the source; they are usually repeats but may differ in a detail not shown here. Equal entries are not always repeated. Ends that are not written are not given here.

B1: unlabeled peptide of the CTH of LYP (residues 787-807) (peptide)
peptide: GFANRFSKPKGPRNPPPTWNI
notes: lymphoid phosphatase LYP (PTPN22), human, C-terminal homology segment, region 787-807; also called LYP-CTH; source: synthetic peptide (Genosphere Biotechnologies)
B2: F-BAR domain of PSTPIP1 (residues 1-289), wild type (domain or fragment)
chain: not shown
notes: PSTPIP1, human, UniProt O43586, region 1-289 (F-BAR domain); modified pET15b with TEV site; homodimer in the crystals; also called wild type F-BAR; F-BAR of PSTPIP1; not shown: poly-His, N-terminal, cleaved
B3: F-BAR domain of PSTPIP1 (residues 1-289), E250Q (domain or fragment)
chain: not shown
notes: PSTPIP1, human, UniProt O43586, region 1-289 (F-BAR domain), patient mutation E250Q; not shown: poly-His, N-terminal, cleaved
B4: F-BAR domain of PSTPIP1 (residues 1-289), W232A (domain or fragment)
chain: not shown
notes: PSTPIP1, human, UniProt O43586, region 1-289 (F-BAR domain), W232A; not shown: poly-His, N-terminal, cleaved
B5: fluorescein-LYP-CTH (peptide)
peptide: fluorescein-GFANRFSKPKGPRNPPPTWNI
notes: LYP (PTPN22), human, UniProt Q9Y2R2-1, region 787-807 (C-terminal homology segment, CTH); also called fluorescein-labeled LYP-CTH; synthetic peptide of the CTH of LYP (residues 787-807) labeled with fluorescein; source: synthetic peptide (custom synthesized, Thermo Scientific, Germany)
B6: LYP-CTH peptide, unlabeled (residues 787-807) (peptide)
peptide: GFANRFSKPKGPRNPPPTWNI
notes: LYP (PTPN22), human, UniProt Q9Y2R2-1, region 787-807 (C-terminal homology segment, CTH); also called unlabeled LYP-CTH; peptide of the CTH of LYP; source: synthetic peptide (custom synthesized, Genosphere Biotechnologies, France)
B7: F-BAR domain of PSTPIP1 (residues 1-289), G258A (domain or fragment)
chain: not shown
notes: PSTPIP1, human, UniProt O43586, residues 1-289 (F-BAR domain), patient mutation G258A; homodimer in the crystal; also called G258A mutant; PSTPIP1-G258A; not shown: poly-His, N-terminal, cleaved

Legend:
[1] = target: T1, F-BAR domain of PSTPIP1 (residues 1-289), wild type (human, UniProt O43586 1-289); test: ITC; unlabeled LYP-CTH peptide in the syringe, F-BAR of PSTPIP1 in the cell; 25 °C; 20 mM sodium phosphate (pH 7.5), 150 mM NaCl, 5% (v/v) DMSO; single set of identical sites model; three single experiments; conditions: both partners purified
T1 construct: His tag cleaved with TEV protease; forms the F-BAR dimer in the crystal; also called PSTPIP1 F-BAR (1-289); F-BAR of PSTPIP1; not shown: poly-His, N-terminal, cleaved

[2] = target: B5; test: fluorescence polarisation; fluorescence anisotropy under saturation conditions; fluorescein-LYP-CTH at 1 µM titrated with the F-BAR of PSTPIP1; stoichiometry from the intersection of asymptotes; conditions: both partners purified
[3] = target: the molecule itself; test: crystal structure; F-BAR domain of PSTPIP1 (1-289) alone, G258A and wild type; space group P212121, two molecules in the asymmetric unit
[4] = target: B5; test: fluorescence polarisation; fluorescence anisotropy; fluorescein-LYP-CTH (2 nM) titrated with the F-BAR of PSTPIP1; 20 mM Tris/HCl pH 7.5, 150 mM NaCl, 0.1 mg/mL BSA; 25 °C; apparent kd, one-to-one binding model; conditions: both partners purified
[5] = target: B2; test: as above; conditions: both partners purified
[6] = target: T2, F-BAR domain of PSTPIP1 (residues 1-289), A230T (human, UniProt O43586 1-289, A230T); test: as above; conditions: both partners purified
T2 construct: PSTPIP1, human, UniProt O43586, region 1-289 (F-BAR domain), patient mutation A230T; also called A230T mutant; not shown: poly-His, N-terminal, cleaved

[7] = target: B2; test: ITC; 25 °C; F-BAR of PSTPIP1 in the cell (26.2-30.6 µM), unlabeled LYP-CTH peptide in the syringe (146.8-155.2 µM); 20 mM sodium phosphate pH 7.5, 150 mM NaCl, 5% DMSO; single set of identical sites model; conditions: both partners purified

T2 sequence (O43586 1-289 A230T): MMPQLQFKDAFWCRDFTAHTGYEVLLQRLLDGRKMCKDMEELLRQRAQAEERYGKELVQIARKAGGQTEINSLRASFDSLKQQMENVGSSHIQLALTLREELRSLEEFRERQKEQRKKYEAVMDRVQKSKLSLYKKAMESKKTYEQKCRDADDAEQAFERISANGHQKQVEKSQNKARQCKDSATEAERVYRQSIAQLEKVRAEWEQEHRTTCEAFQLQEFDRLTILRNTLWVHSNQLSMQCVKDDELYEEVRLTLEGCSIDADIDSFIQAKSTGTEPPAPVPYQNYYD

Question: Which results are given for B1?
Answer: Kd [1]: 263 nM and 229 nM and 267 nM; stoichiometry N [1]: 0.5 and 0.49 and 0.46

Question: For B2, which “stoichiometry N” value [2] is on record?
Answer: Its value is 2 molecules of PSTPIP1 for each LYP-CTH.

Question: Does B2 bind [3]?
Answer: Result: binds

Question: With B3 as the binder, how does the “fold lower binding affinity than the wild type F-BAR” value [4] read?
Answer: The value was ~60 fold.

Question: For B4, which “fold lower binding affinity than the wild type F-BAR” value [4] is on record?
Answer: The value was ~60 fold.

Question: What does the source list for B5?
Answer: Kd [5]: ~20 nM; Kd [6]: ~20 nM

Question: Which Kd [7] does the source give for B6 here?
Answer: Its Kd is 253 nM.

Question: What about the “stoichiometry N” value [7] of the same binder?
Answer: The value was 0.48 molecules of LYP-CTH for each PSTPIP1.

Question: With B7 as the binder, how does the “stoichiometry N” value [3] read?
Answer: The value was 2.
